Laboratory results taken from patent US20160280796A1.

Key:
[1] = molecular target: human CD3 (CD3ε of the TCR/CD3 complex) on purified human CD3 T cells (human) (UniProt P07766); experiment: flow cytometry on purified human CD3 T cells, antibody at 0.1 µg/ml
[2] = molecular target: human CD3 (CD3ε of the TCR/CD3 complex) on purified human CD3 T cells (human) (UniProt P07766); experiment: flow cytometry on CD3+ Jurkat cells, 10 µg/mL, FL4: anti-His mouse mAb + APC anti mIgG, RED2-HLin (right panel); unstained Jurkat 7.61
[3] = molecular target: human CD3 (CD3ε of the TCR/CD3 complex) on purified human CD3 T cells (human) (UniProt P07766); experiment: flow cytometry on purified human CD3 T cells, antibody at 10 µg/ml
[4] = molecular target: human CD3 (CD3ε of the TCR/CD3 complex) on purified human CD3 T cells (human) (UniProt P07766); experiment: flow cytometry on purified human CD3 T cells, antibody at 1 µg/ml
[5] = molecular target: human CD3 (CD3ε of the TCR/CD3 complex) on purified human CD3 T cells (human) (UniProt P07766); experiment: flow cytometry on CD3+ Jurkat cells, 10 µg/mL, FL1: anti-His FITC, GRN-HLin (left panel). DOUBTFUL: the printed value disagrees with the histogram, which lies right of ESK1+L2K, and equals the second row of the left table of FIGURE 8

Median fluorescence intensity (MFI) [1]: 26.2 MFI
Geom. Mean [2]: 94.3
Median fluorescence intensity (MFI) [3]: 188 MFI
Median fluorescence intensity (MFI) [4]: 153 MFI
Geom. Mean [5]: 47.9
B1: control bi-specific antibody (irrelevant human IgG1 antibody ET901 as scFv replacing ESK1 scFv, with anti-CD3 scFv) (bispecific antibody, part only; not given: ET901 control scFv, part only)
chain, part: DVQLVQSGAEVKKPGASVKVSCKASGYTFTRYTMHWVRQAPGQGLEWIGYINPSRGYTNYADSVKGRFTITTDKSTSTAYMELSSLRSEDTATYYCARYYDDHYCLDYWGQGTTVTVSSGEGTSTGSGGSGGSGGADDIVLTQSPATLSLSPGERATLSCRASQSVSYMNWYQQKPGKAPKRWIYDTSKVASGVPARFSGSGSGTDYSLTINSLEAEDAATYYCQQWSSNPLTFGGGTKVEIK
